Source: paper PMC9241269

Molecular target: SYT11 (UniProt Q9BT88)
Assay: co-IP with anti-Myc, blot for GFP-SYT11
Conditions: reference: Myc-JNK1 wild type

| binding against the reference (sites Y185) | binding against the reference (sites T183) | Substance |
| --- | --- | --- |
| lost | – | JNK1 (from UniProt P45983) Myc-JNK1 Y185F |
| – | lost | JNK1 (from UniProt P45983) Myc-JNK1 T183A |
